Results from patent US20240376151A1, “STAPLED PEPTIDES AND METHODS THEREOF” (FOG PHARMACEUTICALS, INC., priority 2022, published 2024).

Molecular target: T1, beta-catenin (Homo sapiens, UniProt P35222)
T1 construct: made in house; host or cells: E. coli BL21 (DE3) pLysS
T1 sequence (P35222 134-665): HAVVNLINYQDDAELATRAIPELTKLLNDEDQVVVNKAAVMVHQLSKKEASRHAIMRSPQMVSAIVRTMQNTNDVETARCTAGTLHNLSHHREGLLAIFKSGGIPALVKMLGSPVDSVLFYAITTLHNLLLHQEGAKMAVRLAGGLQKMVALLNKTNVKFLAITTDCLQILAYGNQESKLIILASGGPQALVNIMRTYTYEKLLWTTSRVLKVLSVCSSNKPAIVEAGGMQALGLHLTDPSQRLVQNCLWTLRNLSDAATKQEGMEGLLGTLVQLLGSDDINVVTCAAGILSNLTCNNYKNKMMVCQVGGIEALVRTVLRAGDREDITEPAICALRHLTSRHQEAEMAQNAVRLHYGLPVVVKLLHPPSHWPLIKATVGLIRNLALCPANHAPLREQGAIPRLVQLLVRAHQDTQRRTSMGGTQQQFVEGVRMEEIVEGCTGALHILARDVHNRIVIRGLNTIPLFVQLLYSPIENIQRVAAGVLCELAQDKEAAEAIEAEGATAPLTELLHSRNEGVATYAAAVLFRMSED
Experiment: Phage Library Screening with NGS, beta-catenin
Assay type: binding
Conditions: for Target Concentration 10 (phage screen NGS readout): beta-catenin target concentration 10; for Target Concentration 10 (phage screen NGS readout) / Target Concentration 30 (phage screen NGS readout) / Target Concentration 100 (phage screen NGS readout) / Target Concentration 300 (phage screen NGS readout): no competitor; for Target Concentration 30 (phage screen NGS readout): beta-catenin target concentration 30; for Target Concentration 100 (phage screen NGS readout): beta-catenin target concentration 100; for Target Concentration 300 (phage screen NGS readout): beta-catenin target concentration 300; for Target Concentration 1000 (phage screen NGS readout): beta-catenin target concentration 1000

Sequence	Target Concentration BLANK (phage screen NGS readout) (first column)	Target Concentration BLANK (phage screen NGS readout) (fourth column)	Target Concentration BLANK (phage screen NGS readout) (second column)	Target Concentration BLANK (phage screen NGS readout) (third column)	Target Concentration 10 (phage screen NGS readout)	Target Concentration 30 (phage screen NGS readout)	Target Concentration 100 (phage screen NGS readout)	Target Concentration 300 (phage screen NGS readout)	Target Concentration 1000 (phage screen NGS readout) (first 1000 column)	Target Concentration 1000 (phage screen NGS readout) (second 1000 column)
DPAEWDCMHAALICEVH	0	0	0	0	0	10	55	54	67	89
DPAEWICEHAALLCSVL	0	0	0	0	0	0	11	33	33	27
DPAEWQCEHAALLCEQQ	0	6	2	0	78	201	907	1681	1740	1609
DPAEWYCEHAALVCTNH	2	1	0	0	0	12	47	156	148	155
DPAFESCFLAAHICYWE	0	0	0	0	2	0	10	7	18	16
DPAFLDCHIAAWTCNEF	0	0	0	0	0	1	10	15	28	15
DPAFLTCHIAAWACSEQ	0	0	2	1	0	1	21	15	52	25
DPAHLMCHYAAWDCRDE	0	0	0	0	0	0	11	13	12	23
DPAHWHCEHAALLCASV	1	0	0	0	2	15	60	231	177	234
DPAHWRCEHAALLCWYN	0	0	0	2	13	6	51	132	140	149
DPAHWSCEWAAEHCRLI	0	0	0	0	0	1	0	31	19	64
DPAHWVCEHAALNCDQN	0	0	1	0	0	2	47	96	104	118
DPAIADCDWAAEHCDLL	0	1	1	4	0	6	118	266	325	417
DPAIFNCTMAALECTQI	0	0	0	0	0	0	2	3	19	0
DPAIIHCYQAAFQCQYM	0	0	0	0	0	0	0	0	7	0
DPAIIRCYEAAFYCQNY	0	0	0	1	0	3	10	67	93	94
DPAILDCHIAAIQCFHD	0	3	0	0	2	1	6	8	1	44
DPAILDCQIAAIECEFA	0	1	0	0	0	22	76	68	139	56
DPAILDCQLAAIDCVYT	0	0	0	0	3	21	67	168	201	114
